The supplement of paper PMC10567573

B1: MYBL2 (parent)
chain: VKKSCWTEEEDRIICEAHKVLGNR
B2: SETD8 (parent)
chain: GKQAPRKKAQGKTQQNRKLTDFYP

Variants of: B1
Test: protein stability index of a GFP-peptide fusion (GPS, HEK-293T) (PSI 1-6); higher = more stable
Settings: c terminus: a fixed tail appended
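Further: lentivirally expressed fusions sorted by FACS into six bins by GFP to DsRed ratio, PSI derived from sequencing read proportions per bin multiplied by bin number.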

Variant | protein stability index
R24S | 3.63
R24Y | 3.06
R24M | 2.86
R24I | 2.69
R24W | 1.86
R24F | 2.4
R24E | 4.05
R24D | 4.19
R24G | 4.11
R24P | 3.7
R24K | 4.21
R24V | 3.47
R24C | 3.3
R24H | 3.49
R24A | 3.42
R24T | 3.95
R24N | 3.59

Variant | protein stability index
R24Q | 4.15
R24L | 3.32
N23Q | 2.95
N23L | 2.35
N23I | 2.63
N23K | 2.59
N23P | 3.77
N23S | 2.9
N23W | 2.59
N23H | 3.71
N23T | 3.41
N23M | 2.1
N23V | 2.93
N23G | 2.57
N23Y | 3.01
N23R | 3.64

Variants of: B2
Test: as above
Settings: c terminus: a fixed tail appended

Variant | protein stability index
Q10D | 3.17
Q10P | 2.65
Q10M | 2.55
Q10R | 3.16
Q10A | 3.52
Q10E | 2.78
Q10S | 4.86
Q10I | 2.86
Q10V | 3.01
Q10F | 3.28
P5V | 3.18
P5Q | 3.75
P5W | 2.57
P5I | 3.36
P5G | 4.29
P5Y | 2.2
P5L | 2.74
P5M | 3.08
P5S | 4.65
P5T | 1.74
P5C | 1.99
P5H | 2.85
P5A | 2.52

Variant | protein stability index
P5K | 3.35
P5E | 3.58
P5F | 2.95
G1T | 3.2
G1K | 3.75
G1D | 2.68
G1M | 2.6
G1I | 2.74
G1R | 2.94
G1S | 3.17
G1P | 4.24
G1V | 3.12
G1F | 3.39
G1E | 3.79
G1L | 2.66
G1Q | 3.8
G1A | 3.04
G1H | 3
G1C | 2.98
G1Y | 3.1
G1N | 2.88
K7D | 3.07
K7M | 3.72

Variant | protein stability index
K7F | 2.42
K7S | 2.48
K7T | 2.78
K7W | 2.95
K7Y | 3.06
K7E | 2.82
K7Q | 3.96
K7N | 2.21
A9H | 2.6
A9N | 4.09
A9Q | 2.89
A9P | 3.43
A9C | 2.77
A9M | 2.54
A9I | 3.08
A9D | 3.57
A9Y | 3.35
R6W | 2.48
R6Y | 2.65
R6N | 4.12
R6V | 2.68
R6K | 3.44
R6C | 2.82

Variant | protein stability index
R6I | 2.76
R6A | 3.42
R6S | 3.46
R6T | 3.21
R6H | 3.07
R6D | 3.67
R6G | 3.55
R6F | 2.43
R6E | 3.29
R6P | 4.13
K2V | 3.99
K2W | 3.69
K2T | 2.46
K2Y | 2.95
K2A | 3.09
K2F | 3.34
K2Q | 3.4
K2R | 3.07
K2L | 4.09
K2M | 3.05
K2N | 3.11
K2C | 2.92
K2G | 2.67

Variant | protein stability index
A4P | 2.63
A4V | 1.83
A4W | 3.3
A4G | 3.46
A4C | 3.34
A4E | 3.04
A4I | 3.09
A4S | 4.29
A4F | 3.05
A4N | 3.23
A4Q | 2.77
A4R | 3.15
A4T | 2.71
A4K | 3.73
Q3H | 3.8
Q3T | 2.93
Q3V | 2.28
Q3F | 2.67
Q3A | 2.63
Q3K | 3.85
Q3Y | 3.58
Q3I | 3.33
Q3D | 3.41

Variant | protein stability index
Q3G | 3.38
Q3P | 2.01
Q3R | 4.32
K8I | 3.04
K8Q | 4.11
K8T | 2.77
K8C | 3.48
K8S | 3.55
K8P | 3.76
K8R | 2.75
K8N | 2.77
K8F | 1.63
K8L | 1.99
K8A | 3.52
K8G | 3.85
K8H | 2.99
K8W | 3.3
K8Y | 3.22
K8M | 3.47
